We go through two molecules from paper PMC7427093, “Revising the mechanism of p75NTR activation: intrinsically monomeric state of death domains invokes the "helper" hypothesis” (Scientific Reports, 2020).

Where “and” joins values, the source holds several entries; their conditions need not be identical. Equal entries are not always repeated.

The target in data set [1] is p75NTR death domain (Homo sapiens) (UniProt P08138). The data set is described as follows: homo-FRET. The note with it: cited from earlier work.
Data set [2] deals with the molecule itself. The data set is described as follows: cross-linking; spontaneous disulfide formation of purified protein in DMPC/CHAPS q = 1 bicelles, LPR 1,000:1 (repeated at 200:1), without reducing agent, room temperature; non-reducing SDS-PAGE at several time points; irreversible second-order kinetics.

The term Kd denotes the free concentration of one partner at which half of the binding sites on the other are occupied at equilibrium, for simple one-to-one binding. For orientation: stoichiometry N means the number of molecules, sites or subunits per partner or assembly.

“p75NTR death domain (from UniProt P08138)”: the Kd in data set [1] was 49 µM.

B1: rP75-ΔECD-3CX-249C: rat p75NTR residues 245-425 with T249C, C279S, C379S, C416S (domain or fragment, UniProt P07174 245-425, looked up)
chain: TRGTCDNLIPVYCSILAAVVVGLVAYIAFKRWNSSKQNKQGANSRPVNQTPPPEGEKLHSDSGISVDSQSLHDQQTHTQTASGQALKGDGNLYSSLPLTKREEVEKLLNGDTWRHLAGELGYQPEHIDSFTHEASPVRALLASWGAQDSATLDALLAALRRIQRADIVESLSSESTATSPV
notes: p75 neurotrophin receptor (p75NTR), rat, UniProt P07174, residues 245-425 (transmembrane and intracellular domains); also called T249C mutant; p75-ΔECD-T249C; source: also in the membrane fraction of E. coli, not purified
On to B1, for which, in data set [2], the “stoichiometry N” value is 2 and 4 and 6.
